Tests used:
4H967-bN = molecular target: T1, 4H967-bN; assay: two-hybrid library CCNG1;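 also: natural log of median RNA to DNA barcode read ratio; higher means stronger binding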
T1 chain: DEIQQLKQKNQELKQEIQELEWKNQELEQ

4H1369-bN = molecular target: T2, 4H1369-bN; assay: two-hybrid library CCNG1;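 also: natural log of median RNA to DNA barcode read ratio; higher means stronger binding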
T2 chain: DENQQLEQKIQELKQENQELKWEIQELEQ

4H3782-bN = molecular target: T3, 4H3782-bN; assay: two-hybrid library CCNG1;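 also: natural log of median RNA to DNA barcode read ratio; higher means stronger binding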
T3 chain: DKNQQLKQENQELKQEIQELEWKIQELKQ

4H2610-bN = molecular target: T4, 4H2610-bN; assay: two-hybrid library CCNG1;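 also: natural log of median RNA to DNA barcode read ratio; higher means stronger binding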
T4 chain: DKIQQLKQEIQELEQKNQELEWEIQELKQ

4H607-bN = molecular target: T5, 4H607-bN; assay: two-hybrid library CCNG1;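 also: natural log of median RNA to DNA barcode read ratio; higher means stronger binding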
T5 chain: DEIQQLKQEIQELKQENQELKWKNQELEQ

4H4001-bN = molecular target: T6, 4H4001-bN; assay: two-hybrid library CCNG1;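 also: natural log of median RNA to DNA barcode read ratio; higher means stronger binding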
T6 chain: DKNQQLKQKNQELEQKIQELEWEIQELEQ

4H2667-bN = molecular target: T7, 4H2667-bN; assay: two-hybrid library CCNG1
T7 chain: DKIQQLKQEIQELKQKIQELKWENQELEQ

4H1446-bN = molecular target: T8, 4H1446-bN; assay: two-hybrid library CCNG1
T8 chain: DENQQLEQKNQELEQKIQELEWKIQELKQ

4H3843-bN = molecular target: T9, 4H3843-bN; assay: two-hybrid library CCNG1
T9 chain: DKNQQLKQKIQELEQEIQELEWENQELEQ

4H953-bN = molecular target: T10, 4H953-bN; assay: two-hybrid library CCNG1
T10 chain: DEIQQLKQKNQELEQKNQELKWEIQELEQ

4H797-bN = molecular target: T11, 4H797-bN; assay: two-hybrid library CCNG1
T11 chain: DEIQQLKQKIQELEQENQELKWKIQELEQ

4H3189-bN = molecular target: T12, 4H3189-bN; assay: two-hybrid library CCNG1
T12 chain: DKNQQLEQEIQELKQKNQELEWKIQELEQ

4H462-bN = molecular target: T13, 4H462-bN; assay: two-hybrid library CCNG1
T13 chain: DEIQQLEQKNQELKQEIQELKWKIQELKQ

4H883-bN = molecular target: T14, 4H883-bN; assay: two-hybrid library CCNG1
T14 chain: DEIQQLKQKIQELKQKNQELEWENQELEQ

4H687-bN = molecular target: T15, 4H687-bN; assay: two-hybrid library CCNG1
T15 chain: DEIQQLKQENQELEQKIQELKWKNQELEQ

4H331-bN = molecular target: T16, 4H331-bN; assay: two-hybrid library CCNG1
T16 chain: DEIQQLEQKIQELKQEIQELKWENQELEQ

4H2697-bN = molecular target: T17, 4H2697-bN; assay: two-hybrid library CCNG1
T17 chain: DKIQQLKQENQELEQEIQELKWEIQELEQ

4H3606-bN = molecular target: T18, 4H3606-bN; assay: two-hybrid library CCNG1
T18 chain: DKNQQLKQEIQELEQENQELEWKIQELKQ

4H568-bN = molecular target: T19, 4H568-bN; assay: two-hybrid library CCNG1
T19 chain: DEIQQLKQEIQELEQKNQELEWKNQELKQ

4H1328-bN = molecular target: T20, 4H1328-bN; assay: two-hybrid library CCNG1
T20 chain: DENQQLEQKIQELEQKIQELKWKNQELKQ

4H370-bN = molecular target: T21, 4H370-bN; assay: two-hybrid library CCNG1
T21 chain: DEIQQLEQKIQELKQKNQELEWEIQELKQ

4H72-bN = molecular target: T22, 4H72-bN; assay: two-hybrid library CCNG1
T22 chain: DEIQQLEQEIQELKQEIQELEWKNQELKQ

4H1845-bN = molecular target: T23, 4H1845-bN; assay: two-hybrid library CCNG1
T23 chain: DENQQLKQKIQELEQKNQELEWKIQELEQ

4H918-bN = molecular target: T24, 4H918-bN; assay: two-hybrid library CCNG1
T24 chain: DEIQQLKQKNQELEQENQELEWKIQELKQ

4H2576-bN = molecular target: T25, 4H2576-bN; assay: two-hybrid library CCNG1
T25 chain: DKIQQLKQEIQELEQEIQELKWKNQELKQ

4H264-bH = molecular target: T26, 4H264-bH; assay: two-hybrid library CCNG1
T26 chain: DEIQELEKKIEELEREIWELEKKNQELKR

4H428-AA = molecular target: T27, 4H428-AA; assay: two-hybrid library CCmax; conditions: mean of both orientations
T27 chain: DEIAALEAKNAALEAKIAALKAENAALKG

4H3446-AA = molecular target: T28, 4H3446-AA; assay: two-hybrid library CCmax; conditions: mean of both orientations
T28 chain: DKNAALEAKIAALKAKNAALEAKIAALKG

4H497-AA = molecular target: T29, 4H497-AA; assay: two-hybrid library CCmax; conditions: mean of both orientations
T29 chain: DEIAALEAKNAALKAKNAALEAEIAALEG

4H1391-AA = molecular target: T30, 4H1391-AA; assay: two-hybrid library CCmax; conditions: mean of both orientations
T30 chain: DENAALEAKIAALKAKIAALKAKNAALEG

4H3920-AA = molecular target: T31, 4H3920-AA; assay: two-hybrid library CCmax; conditions: mean of both orientations
T31 chain: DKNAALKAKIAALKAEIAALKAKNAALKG

4H1348-AA = molecular target: T32, 4H1348-AA; assay: two-hybrid library CCmax; conditions: mean of both orientations
T32 chain: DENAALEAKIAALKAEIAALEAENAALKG

4H3709-AA = molecular target: T33, 4H3709-AA; assay: two-hybrid library CCmax; conditions: mean of both orientations
T33 chain: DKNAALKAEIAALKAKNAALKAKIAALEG

4H478-AA = molecular target: T34, 4H478-AA; assay: two-hybrid library CCmax; conditions: mean of both orientations
T34 chain: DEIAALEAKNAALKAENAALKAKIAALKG

4H2713-AA = molecular target: T35, 4H2713-AA; assay: two-hybrid library CCmax
T35 chain: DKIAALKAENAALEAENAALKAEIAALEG

4H1854-AA = molecular target: T36, 4H1854-AA; assay: two-hybrid library CCmax; conditions: mean of both orientations
T36 chain: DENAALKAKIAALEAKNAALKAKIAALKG

4H675-AA = molecular target: T37, 4H675-AA; assay: two-hybrid library CCmax; conditions: mean of both orientations
T37 chain: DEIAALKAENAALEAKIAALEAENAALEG

4H656-AA = molecular target: T38, 4H656-AA; assay: two-hybrid library CCmax; conditions: mean of both orientations
T38 chain: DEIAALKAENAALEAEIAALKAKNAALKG

4H3066-AA = molecular target: T39, 4H3066-AA; assay: two-hybrid library CCmax; conditions: mean of both orientations
T39 chain: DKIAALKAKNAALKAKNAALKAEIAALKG

4H3121-AA = molecular target: T40, 4H3121-AA; assay: two-hybrid library CCmax; conditions: mean of both orientations
T40 chain: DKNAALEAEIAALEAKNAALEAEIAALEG

4H2248-AA = molecular target: T41, 4H2248-AA; assay: two-hybrid library CCmax; conditions: mean of both orientations
T41 chain: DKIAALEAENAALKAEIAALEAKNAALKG

4H1146-AA = molecular target: T42, 4H1146-AA; assay: two-hybrid library CCmax; conditions: mean of both orientations
T42 chain: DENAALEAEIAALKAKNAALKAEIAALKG

4H2991-AA = molecular target: T43, 4H2991-AA; assay: two-hybrid library CCmax; conditions: mean of both orientations
T43 chain: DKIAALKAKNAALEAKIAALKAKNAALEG

4H1809-AA = molecular target: T44, 4H1809-AA; assay: two-hybrid library CCmax; conditions: mean of both orientations
T44 chain: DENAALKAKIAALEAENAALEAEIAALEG

4H3628-AA = molecular target: T45, 4H3628-AA; assay: two-hybrid library CCmax; conditions: mean of both orientations
T45 chain: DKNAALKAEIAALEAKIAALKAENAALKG

4H189-AA = molecular target: T46, 4H189-AA; assay: two-hybrid library CCmax; conditions: mean of both orientations
T46 chain: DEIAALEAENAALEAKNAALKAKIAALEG

4H1109-AA = molecular target: T47, 4H1109-AA; assay: two-hybrid library CCmax; conditions: mean of both orientations
T47 chain: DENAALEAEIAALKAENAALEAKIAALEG

4H3417-AA = molecular target: T48, 4H3417-AA; assay: two-hybrid library CCmax; conditions: mean of both orientations
T48 chain: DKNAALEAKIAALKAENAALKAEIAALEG

4H2283-AA = molecular target: T49, 4H2283-AA; assay: two-hybrid library CCmax; conditions: mean of both orientations
T49 chain: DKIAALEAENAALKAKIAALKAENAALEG

4H3102-AA = molecular target: T50, 4H3102-AA; assay: two-hybrid library CCmax; conditions: mean of both orientations
T50 chain: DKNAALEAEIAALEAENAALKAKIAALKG

4H3666-AA = molecular target: T51, 4H3666-AA; assay: two-hybrid library CCmax; conditions: mean of both orientations
T51 chain: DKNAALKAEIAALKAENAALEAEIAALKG

4H391-AA = molecular target: T52, 4H391-AA; assay: two-hybrid library CCmax; conditions: mean of both orientations
T52 chain: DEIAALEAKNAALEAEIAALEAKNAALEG

4H971-AA = molecular target: T53, 4H971-AA; assay: two-hybrid library CCmax; conditions: mean of both orientations
T53 chain: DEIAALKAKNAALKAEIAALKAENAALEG

4H3029-AA = molecular target: T54, 4H3029-AA; assay: two-hybrid library CCmax; conditions: mean of both orientations
T54 chain: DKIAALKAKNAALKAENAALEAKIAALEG

4H2742-AA = molecular target: T55, 4H2742-AA; assay: two-hybrid library CCmax; conditions: mean of both orientations
T55 chain: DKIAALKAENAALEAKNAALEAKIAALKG

4H1035-AA = molecular target: T56, 4H1035-AA; assay: two-hybrid library CCmax
T56 chain: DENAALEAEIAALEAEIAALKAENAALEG

4H146-AA = molecular target: T57, 4H146-AA; assay: two-hybrid library CCmax
T57 chain: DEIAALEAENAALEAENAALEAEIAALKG

4H3591-AA = molecular target: T58, 4H3591-AA; assay: two-hybrid library CCmax; conditions: mean of both orientations
T58 chain: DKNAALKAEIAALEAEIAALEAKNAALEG

4H1064-AA = molecular target: T59, 4H1064-AA; assay: two-hybrid library CCmax; conditions: mean of both orientations
T59 chain: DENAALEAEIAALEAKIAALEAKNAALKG

4H3939-AA = molecular target: T60, 4H3939-AA; assay: two-hybrid library CCmax; conditions: mean of both orientations
T60 chain: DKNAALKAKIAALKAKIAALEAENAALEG

4H2948-AA = molecular target: T61, 4H2948-AA; assay: two-hybrid library CCmax; conditions: mean of both orientations
T61 chain: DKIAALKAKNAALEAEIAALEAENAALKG

Binder: DENQQLEQKIQELEQKIQELKWKNQELKQ [4H1328-bN]
- interaction score (4H967-bN): 0.0544
- interaction score (4H1369-bN): -0.223
- interaction score (4H3782-bN): -1.38
- interaction score (4H2610-bN): 0.84
- interaction score (4H607-bN): -0.376
- interaction score (4H4001-bN): 1.19
- interaction score (4H2667-bN): 1.46
- interaction score (4H1446-bN): 0.527
- interaction score (4H3843-bN): 1.16
- interaction score (4H953-bN): -0.513
- interaction score (4H797-bN): -0.686
- interaction score (4H3189-bN): -0.232
- interaction score (4H462-bN): -1.6
- interaction score (4H883-bN): 0.625
- interaction score (4H687-bN): 0.403
- interaction score (4H331-bN): 1.8
- interaction score (4H2697-bN): -0.465
- interaction score (4H3606-bN): -0.42
- interaction score (4H568-bN): -0.31
- interaction score (4H1328-bN): 0.393
- interaction score (4H370-bN): -0.748
- interaction score (4H72-bN): 0.764
- interaction score (4H1845-bN): -1.61
- interaction score (4H918-bN): -0.287
- interaction score (4H2576-bN): 1.57
- interaction score (4H264-bH): 1.68

Binder: DENAALEAEIAALEAEIAALKAENAALEG [4H1035-AA]
- interaction score (4H428-AA): -1.35
- interaction score (4H3446-AA): -1.17
- interaction score (4H497-AA): -1.73
- interaction score (4H1391-AA): 0.63
- interaction score (4H3920-AA): 1.9
- interaction score (4H1348-AA): 1.45
- interaction score (4H3709-AA): -0.573
- interaction score (4H478-AA): -1.03
- interaction score (4H2713-AA): -1.63
- interaction score (4H1854-AA): -0.616
- interaction score (4H675-AA): -2.03
- interaction score (4H656-AA): -1.67
- interaction score (4H3066-AA): -0.363
- interaction score (4H3121-AA): -1.67
- interaction score (4H2248-AA): -1.39
- interaction score (4H1146-AA): -1.34
- interaction score (4H2991-AA): -1.12
- interaction score (4H1809-AA): -1.83
- interaction score (4H3628-AA): 1.36
- interaction score (4H189-AA): -1.24
- interaction score (4H1109-AA): -1.69
- interaction score (4H3417-AA): -1.73
- interaction score (4H2283-AA): -1.67
- interaction score (4H3102-AA): -1.34
- interaction score (4H3666-AA): -1.55
- interaction score (4H391-AA): -1.84
- interaction score (4H971-AA): -0.881
- interaction score (4H3029-AA): -2.17
- interaction score (4H2742-AA): -1.51
- interaction score (4H1035-AA): -0.719
- interaction score (4H146-AA): -1.39
- interaction score (4H3591-AA): -1.08
- interaction score (4H1064-AA): -0.486
- interaction score (4H3939-AA): 0.466
- interaction score (4H2948-AA): -1.56
